Values joined by “and” are separate entries in the source; they are usually repeats but may differ in a detail not shown here. Equal entries are not always repeated.
B1: S100B dimer (highly pure, trigger-free) (natural protein, rat, UniProt P04631 1-92, looked up)
chain: MSELEKAMVALIDVFHQYSGREGDKHKLKKSELKELINNELSHFLEEIKEQEVVDKVMETLDEDGDGECDFQEFMAFVSMVTTACHEFFEHE
notes: S100B, rat; plasmid with the rat S100B gene (gift from D. Weber); monomer 10.7 kDa, dimer 21.5 kDa as printed; Homodimer; No tag is mentioned; In rows of m1 with m1 the step meant (monomers to dimer, or dimers to tetramer and higher) is told in the assay's format; also called trigger-free S100B; trigger-free S100B dimer
B2: S100B hexamer (natural protein, rat, UniProt P04631 1-92, looked up)
chain: B1 chain
notes: S100B, rat; same chain as m1, isolated as hexamer (64.5 kDa expected); Same polypeptide as m1 in another oligomeric state; free of imidazol after gel filtration; also called hexamer fraction; source: E. coli BL21 De3 PLysS star; trigger-free dimer triggered with 90 mM imidazol, hexamer fraction collected from Superdex 200 gel filtration
B3: S100B tetramer (natural protein, rat, UniProt P04631 1-92, looked up)
chain: B1 chain
notes: S100B, rat; same chain as m1, isolated as tetramer (43.0 kDa expected); Same polypeptide as m1 in another oligomeric state; free of imidazol after gel filtration; also called tetramer fraction; source: E. coli BL21 De3 PLysS star; trigger-free dimer triggered with 90 mM imidazol, tetramer fraction collected from Superdex 200 gel filtration

Experiments:
[1] = biological target: the molecule itself; assay: SEC; hexamer, tetramer and dimer fractions collected after imidazol triggering, reinjected on Superdex 200 and analysed repeatedly during storage for up to 6 months in solution at 4 °C
[2] = biological target: T1, p53 target peptide (Met followed by residues 367-388 of p53, Phe 385 changed to Trp) (Phe 385 changed to Trp (stands in the printed letters)); assay: other fluorescence titration; p53 peptide (0.07-1.3 µM) titrated with S100B dimer, tetramer or hexamer stock; 10 mM BisTris, 5 mM CaCl2, pH 7, 25 °C; Trp emission at 330 nm, excitation 295 nm; 1:1 binding model fitted against total S100B monomer concentration; conditions: both partners purified
T1 construct: added Met before the p53 residues; p53, C-terminal regulatory domain, residues 367-388 with Phe 385 changed to Trp; the peptide was cleaved off; also called p53 peptide; target peptide from p53; source: E. coli ER2566, purified (DEAE cellulose, chitin column, cleaved off from the intein with 50 mM DTT, G25 gel filtration)
T1 peptide: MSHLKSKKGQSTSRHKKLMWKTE

[3] = biological target: the molecule itself; assay: SEC; analytical gel filtration on Superdex 200; step: dimers to tetramer, hexamer and higher oligomers; 20 mg/ml trigger-free S100B dimer with imidazol (20-900 mM, optimum 90 mM), 1 mM EDTA, 1 mM DTT, 0.25 M NaCl, pH 7.0, lyophilized, dissolved, incubated 24 h at 4 °C
[4] = biological target: the molecule itself; assay: dynamic light scattering; ZetaSizer Nano-S; fractions collected directly from the Superdex200 column in 25 mM sodium carbonate with 25 mM HCl, pH 7.3

Row | Binder | stoichiometry N [1] | stoichiometry N [2] | stoichiometry N [3] | stoichiometry N [4]
1 | B1 | 2 | 2 peptides per dimer | 4 and 6 | 
2 | B2 |  | 6 peptides per hexamer |  | 6
3 | B3 |  | 4 peptides per tetramer |  | 4

From publication PMC3060798, “Molecular Determinants of S100B Oligomer Formation” (PLoS ONE, 2011)
